Test results as given in patent US20190127438.

How the values were obtained:
[1] = molecular target: T1, protease resistant A43-FceRIa (K43 to A43 variant of recombinant human FceRIa)
T1 chain 1: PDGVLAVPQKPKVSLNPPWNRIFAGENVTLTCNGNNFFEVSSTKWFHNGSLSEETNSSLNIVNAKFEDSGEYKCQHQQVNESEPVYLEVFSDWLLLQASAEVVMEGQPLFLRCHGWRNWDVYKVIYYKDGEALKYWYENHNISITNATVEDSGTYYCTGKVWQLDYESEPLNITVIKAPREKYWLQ
T1 chain 2: HHHHHH

[2] = molecular target: T2, recombinant wild type FceRIa (extracellular region of the alpha chain of the human high-affinity IgE receptor, spacer, 6His)
T2 chain: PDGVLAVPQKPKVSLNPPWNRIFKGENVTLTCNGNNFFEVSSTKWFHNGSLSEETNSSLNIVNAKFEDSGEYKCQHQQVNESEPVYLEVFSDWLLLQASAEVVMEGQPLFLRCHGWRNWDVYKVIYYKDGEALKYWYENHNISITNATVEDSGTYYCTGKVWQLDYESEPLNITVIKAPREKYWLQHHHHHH

B1: plasmin (Sigma P1867) (protein)
chain: KVYLSECKTGNGKNYRGTMSKTKNGITCQKWSSTSPHRPRFSPATHPSEGLEENYCRNPDNDPQGPWCYTTDPEKRYDYCDILECEEECMHCSGENYDGKISKTMSGLECQAWDSQSPHAHGYIPSKFPNKNLKKNYCRNPDRELRPWCFTTDPNKRWELCDIPRCTTPPPSSGPTYQCLKGTGENYRGNVAVTVSGHTCQHWSAQTPHTHNRTPENFPCKNLDENYCRNPDGKRAPWCHTTNSQVRWEYCKIPSCDSSPVSTEQLAPTAPPELTPVVQDCYHGDGQSYRGTSSTTTTGKKCQSWSSMTPHRHQKTPENYPNAGLTMNYCRNPDADKGPWCFTTDPSVRWEYCNLKKCSGTEASVVAPPPVVLLPDVETPSEEDCMFGNGKGYRGKRATTVTGTPCQDWAAQEPHRHSIFTPETNPRAGLEKNYCRNPDGDVGGPWCYTTNPRKLYDYCDVPQCAAPSFDCGKPQVEPKKCPGRVVGGCVAHPHSWPWQVSLRTRFGMHFCGGTLISPEWVLTAAHCLEKSPRPSSYKVILGAHQEVNLEPHVQEIEVSRLFLEPTRKDIALLKLSSPAVITDKVIPACLPSPNYVVADRTECFITGWGETQGTFGAGLLKEAQLPVIENKVCNRYEFLNGRVQSTELCAGHLAGGTDSCQGDSGGPLVCFEKDKYILQGVTSWGLGCARPNKPGVYVRVSRFVTWIEGVMRNN
Q: B1 was tested. Which “plasmin cleavage, Base Peak Chromatogram (LC-MS)” value [1] did it give?
A: complete absence of a cleavage product in the mutant, protease resistant variant of recombinant A43-FceRIa (black line), whereas the wild type receptor digest peak appears at 30 min (grey line)

Q: What about the “plasmin cleavage, peptides in the Base Peak Chromatogram (LC-MS)” value [2] of the same protein?
A: Site K43 (indicated as peptide K in FIG. 2B) of recombinant wt FceRIa was preferentially cleaved whereas plasmin cleavage sites K31, R40, K201, R199, K196 and K142 (indicated as peptide 1-8 in FIG. 2B) were cleaved to lesser extent
